Test [1] deals with BTN2A1 (Ser44-Arg) and BTN3A1 (Glu106-Ala) co-expressed on NIH-3T3 cells (human) (UniProt Q7KYR7). Put plainly: flow cytometry on NIH-3T3 cells co-transfected with BTN2A1 Ser44-Arg and BTN3A1 Glu106-Ala, no zoledronate.
The target in test [2] is BTN2A1 (Ser44-Arg) and BTN3A1 (WT) co-expressed on NIH-3T3 cells (human) (UniProt Q7KYR7). Put plainly: flow cytometry on NIH-3T3 cells co-transfected with BTN2A1 Ser44-Arg and BTN3A1 WT, no zoledronate.
In test [3] the target is BTN2A1 (WT) and BTN3A1 (Glu106-Ala) co-expressed on NIH-3T3 cells (human) (UniProt Q7KYR7). Nature of the test: flow cytometry on NIH-3T3 cells co-transfected with BTN2A1 WT and BTN3A1 Glu106-Ala, zoledronate (100 µM).
The target of test [4] is BTN2A1 (Ser44-Arg) and BTN3A1 (WT) co-expressed on NIH-3T3 cells (human) (UniProt Q7KYR7). Nature of the test: flow cytometry on NIH-3T3 cells co-transfected with BTN2A1 Ser44-Arg and BTN3A1 WT, zoledronate (100 µM).
Test [5] deals with full-length human BTN3A1 on transfected cells (human) (UniProt O00481). Put plainly: flow cytometry, γδTCR tetramer-PE on BTN3A1-transfected NIH-3T3 cells treated with isotype IgG1κ (black number); SAv control 25.
Test [6] deals with BTN2A1-BTN3A1-zipper ectodomain complex (construct #1, long linker version with high affinity zippers) (human). Put plainly: SPR, equilibrium; BTN2A1-BTN3A1 ectodomain complex immobilised, soluble TCR injected.
In test [7] the target is BTN2A1 (WT) and BTN3A1 (Glu106-Ala) co-expressed on NIH-3T3 cells (human) (UniProt Q7KYR7). Nature of the test: flow cytometry on NIH-3T3 cells co-transfected with BTN2A1 WT and BTN3A1 Glu106-Ala, no zoledronate.
In test [8] the target is BTN2A1 (WT) and BTN3A1 (WT) co-expressed on NIH-3T3 cells (human) (UniProt Q7KYR7). Nature of the test: flow cytometry on NIH-3T3 cells co-transfected with BTN2A1 WT and BTN3A1 WT, no zoledronate.
The target of test [9] is BTN2A1 (Ser44-Arg) and BTN3A1 (Glu106-Ala) co-expressed on NIH-3T3 cells (human) (UniProt Q7KYR7). Put plainly: flow cytometry on NIH-3T3 cells co-transfected with BTN2A1 Ser44-Arg and BTN3A1 Glu106-Ala, zoledronate (100 µM).
Test [10] concerns the target BTN2A1 (WT) and BTN3A1 (WT) co-expressed on NIH-3T3 cells (human) (UniProt Q7KYR7). Put plainly: flow cytometry on NIH-3T3 cells co-transfected with BTN2A1 WT and BTN3A1 WT, zoledronate (100 µM).
For test [11], the target named is BTN2A1 ectodomain homodimer, disulfide-linked (C-terminal Cys247, acidic or basic leucine zipper) (human) (UniProt Q7KYR7). Put plainly: SPR, soluble TCR over immobilised BTN2A1 homodimer, KD at equilibrium.
Test [12] has as its target full-length human BTN3A1 on transfected cells pre-treated (cross-linked) with anti-BTN3A mAb clone 20.1 (human). Nature of the test: flow cytometry, FRET (YG 670/30) between TCR tetramer-PE and anti-BTN3A 20.1-AF647 on BTN3A1+ NIH-3T3 cells; with IgG1κ-AF647 the gate holds 0.02, with SAv 0.

full-length human BTN3A1 on transfected cells (human), sequence (O00481 30-513): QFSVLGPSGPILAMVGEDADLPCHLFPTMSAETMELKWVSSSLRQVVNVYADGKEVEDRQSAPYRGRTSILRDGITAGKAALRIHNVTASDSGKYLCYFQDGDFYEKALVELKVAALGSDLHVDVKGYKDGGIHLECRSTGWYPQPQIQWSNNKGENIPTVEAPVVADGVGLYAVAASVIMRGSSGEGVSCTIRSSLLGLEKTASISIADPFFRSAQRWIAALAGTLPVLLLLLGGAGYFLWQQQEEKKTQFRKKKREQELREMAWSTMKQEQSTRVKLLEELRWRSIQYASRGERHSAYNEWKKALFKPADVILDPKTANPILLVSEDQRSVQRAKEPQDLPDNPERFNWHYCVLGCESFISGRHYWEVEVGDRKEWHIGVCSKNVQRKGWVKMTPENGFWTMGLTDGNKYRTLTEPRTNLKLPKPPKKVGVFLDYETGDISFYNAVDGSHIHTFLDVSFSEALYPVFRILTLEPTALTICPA
BTN2A1 (Ser44-Arg) and BTN3A1 (WT) co-expressed on NIH-3T3 cells (human), sequence (Q7KYR7 29-527 S72R, chain 1 of 2): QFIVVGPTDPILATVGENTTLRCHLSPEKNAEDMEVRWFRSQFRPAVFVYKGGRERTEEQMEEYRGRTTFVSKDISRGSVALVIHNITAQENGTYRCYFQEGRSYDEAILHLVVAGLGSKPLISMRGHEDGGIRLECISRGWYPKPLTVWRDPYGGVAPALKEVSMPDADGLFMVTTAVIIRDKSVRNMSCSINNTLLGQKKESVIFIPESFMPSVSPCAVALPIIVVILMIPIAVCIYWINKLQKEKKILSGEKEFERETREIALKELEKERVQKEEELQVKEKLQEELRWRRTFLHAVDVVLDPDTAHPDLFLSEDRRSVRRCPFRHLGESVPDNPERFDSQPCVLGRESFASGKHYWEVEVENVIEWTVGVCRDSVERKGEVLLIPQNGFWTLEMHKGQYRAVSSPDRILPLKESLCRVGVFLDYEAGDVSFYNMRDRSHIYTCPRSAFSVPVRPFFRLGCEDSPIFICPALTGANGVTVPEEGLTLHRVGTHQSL
BTN2A1 (Ser44-Arg) and BTN3A1 (WT) co-expressed on NIH-3T3 cells (human), sequence (chain, as listed by the source S44R S44R, chain 2 of 2): as the sequence (O00481 30-513) above
BTN2A1 (Ser44-Arg) and BTN3A1 (Glu106-Ala) co-expressed on NIH-3T3 cells (human), sequence (Q7KYR7 29-527 S72R limits assumed, chain 1 of 2): as the sequence (Q7KYR7 29-527 S72R, chain 1 of 2) above
BTN2A1 (Ser44-Arg) and BTN3A1 (Glu106-Ala) co-expressed on NIH-3T3 cells (human), sequence (chain, as listed by the source S44R E106A S44R E106A limits assumed, chain 2 of 2): as the sequence (O00481 30-513) above, with E106A counted along it
BTN2A1 ectodomain homodimer, disulfide-linked (C-terminal Cys247, acidic or basic leucine zipper) (human), sequence (Q7KYR7 29-248, chain 1 of 2): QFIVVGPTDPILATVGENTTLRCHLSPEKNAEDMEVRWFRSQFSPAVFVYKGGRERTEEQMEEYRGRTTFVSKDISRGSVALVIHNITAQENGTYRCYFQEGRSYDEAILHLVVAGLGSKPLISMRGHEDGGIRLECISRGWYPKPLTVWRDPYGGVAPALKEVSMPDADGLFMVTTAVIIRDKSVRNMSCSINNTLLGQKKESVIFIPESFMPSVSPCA
BTN2A1 ectodomain homodimer, disulfide-linked (C-terminal Cys247, acidic or basic leucine zipper) (human), sequence (Q7KYR7 29-248, chain 2 of 2): as the sequence (Q7KYR7 29-248, chain 1 of 2) above
BTN2A1 (WT) and BTN3A1 (Glu106-Ala) co-expressed on NIH-3T3 cells (human), sequence (Q7KYR7 29-527 limits assumed, chain 1 of 2): as the sequence (Q7KYR7 29-527 S72R, chain 1 of 2) above, with R44S counted along it
BTN2A1 (WT) and BTN3A1 (Glu106-Ala) co-expressed on NIH-3T3 cells (human), sequence (chain, as listed by the source E106A E106A limits assumed, chain 2 of 2): as the sequence (O00481 30-513) above, with E106A counted along it
BTN2A1 (WT) and BTN3A1 (WT) co-expressed on NIH-3T3 cells (human), sequence (Q7KYR7 29-527, chain 1 of 2): as the sequence (Q7KYR7 29-527 S72R, chain 1 of 2) above, with R44S counted along it
BTN2A1 (WT) and BTN3A1 (WT) co-expressed on NIH-3T3 cells (human), sequence (chain, as listed by the source, chain 2 of 2): as the sequence (O00481 30-513) above
full-length human BTN3A1 on transfected cells pre-treated (cross-linked) with anti-BTN3A mAb clone 20.1 (human), sequence (O00481 30-513): as above

B1: soluble G115 Vγ9Vδ2+ TCR His85γ-Ala (TCR, from a related filing, V domains shown)
V domain 1: AIELVPEHQTVPVSIGVPATLRCSMKGEAIGNYYINWYRKTQGNTMTFIYREKDIYGPGFKDNFQGDIDIAKNLAVLKILAPSERDEGSYYCACDTLGMGGEYTDKLIFGKGTRVTVEP
V domain 2: AGHLEQPQISSTKTLSKTARLECVVSGITISATSVYWYRERPGEVIQFLVSISYDGTVRKESGIPSGKFEVDRIPETSTSTLTIANVEKQDIATYYCALWEAQQELGKKIKVFGPGTKLIITD
As to B1, the mean fluorescence intensity of TCR tetramer (black gate) in [1] was found to be 11300; in [2], 10800; in [3], 23300; in test [4], 28100; in test [7], 7210; in [8], 635. Besides, the values for the mean fluorescence intensity of TCR tetramer (black gate) in test [9] and in [10] were 26600 and 1700, respectively. Besides, the MFI of PE (GFP+ gate) in [5] worked out at 33. In test [6], this molecule registered a Kd of 740 µM.

B2: G115 Vγ9Vδ2+ TCR tetramer with combined His85γ-Ala and Glu52δ-Ala mutations (TCR, from a related filing, V domains shown)
V domain 1: AIELVPEHQTVPVSIGVPATLRCSMKGEAIGNYYINWYRKTQGNTMTFIYRAKDIYGPGFKDNFQGDIDIAKNLAVLKILAPSERDEGSYYCACDTLGMGGEYTDKLIFGKGTRVTVEP
V domain 2: AGHLEQPQISSTKTLSKTARLECVVSGITISATSVYWYRERPGEVIQFLVSISYDGTVRKESGIPSGKFEVDRIPETSTSTLTIANVEKQDIATYYCALWEAQQELGKKIKVFGPGTKLIITD
Molecule B2 had an MFI of PE (GFP+ gate) in [5] of 38.

B3: G115 Vγ9Vδ2+ TCR tetramer Lys108γ-Ala (TCR, from a related filing, V domains shown)
V domain 1: AIELVPEHQTVPVSIGVPATLRCSMKGEAIGNYYINWYRKTQGNTMTFIYREKDIYGPGFKDNFQGDIDIAKNLAVLKILAPSERDEGSYYCACDTLGMGGEYTDKLIFGKGTRVTVEP
V domain 2: AGHLEQPQISSTKTLSKTARLECVVSGITISATSVYWYRERPGEVIQFLVSISYDGTVRKESGIPSGKFEVDRIPETSTSTLTIHNVEKQDIATYYCALWEAQQELGAKIKVFGPGTKLIITD
Take B3: the MFI of PE (GFP+ gate) in [5] was 25.

B4: soluble G115 Vγ9Vδ2+ TCR Glu52δ-Ala (TCR, from a related filing, V domains shown)
V domain 1: AIELVPEHQTVPVSIGVPATLRCSMKGEAIGNYYINWYRKTQGNTMTFIYRAKDIYGPGFKDNFQGDIDIAKNLAVLKILAPSERDEGSYYCACDTLGMGGEYTDKLIFGKGTRVTVEP
V domain 2: AGHLEQPQISSTKTLSKTARLECVVSGITISATSVYWYRERPGEVIQFLVSISYDGTVRKESGIPSGKFEVDRIPETSTSTLTIHNVEKQDIATYYCALWEAQQELGKKIKVFGPGTKLIITD
For the molecule B4, the MFI of PE (GFP+ gate) in [5] amounted to 32. For the same molecule, the Kd in test [6] is 140 µM; in [11], 93 µM.

B5: soluble G115 Vγ9Vδ2+ TCR Lys53δ-Ala (TCR, from a related filing)
TCR delta: AIELVPEHQTVPVSIGVPATLRCSMKGEAIGNYYINWYRKTQGNTMTFIYREADIYGPGFKDNFQGDIDIAKNLAVLKILAPSERDEGSYYCACDTLGMGGEYTDKLIFGKGTRVTVEPRSQPHTKPSVFVMKNGTNVACLVKEFYPKDIRINLVSSKKITEFDPAIVISPSGKYNAVKLGKYEDSNSVTCSVQHDNKTVHSTDFEVKTDSTDHVKPKETENTKQPSKSCHKPKAIVHTEK
TCR gamma: AGHLEQPQISSTKTLSKTARLECVVSGITISATSVYWYRERPGEVIQFLVSISYDGTVRKESGIPSGKFEVDRIPETSTSTLTIHNVEKQDIATYYCALWEAQQELGKKIKVFGPGTKLIITDKQLDADVSPKPTIFLPSIAETKLQKAGTYLCLLEKFFPDVIKIHWEEKKSNTILGSQEGNTMKTNDTYMKFSWLTVPEKSLDKEHRCIVRHENNKNGVDQEIIFPPIKTDVITMDPKDNCSKDANDTLLLQLTNTSA
B5: in test [12], the % cells in the FRET gate came to 34%. Further, the Kd in test [11] amounted to 81 µM.

The record behind these values is patent US20250179144A1.
